One substance from paper PMC8715119, “Second-generation non-hematopoietic erythropoietin-derived peptide for neuroprotection” (Redox Biology, 2021) can be followed below.

In data set [1] the test system is HT-22 cells. Nature of the data set: TUNEL assay after hypoxia and re-oxygenation. In kind it is cell-based, mouse. The conditions noted are these: hypoxia 18 h, re-oxygenation 3 h; reEPO 0.5 IU/ml, ML1-h3 1 ng/ml; n = 5. The procedure: (§1) HT-22 cells (kindly provided by Prof. Gil-Saeng Jeong in Keimyung University), an immortalized mouse hippocampal cell line, were cultured at 37°C and 5% CO2 in Dulbecco's modified eagle medium (DMEM, Invitrogen, USA) supplemented with 10% FBS and 1% penicillin/streptomycin at 37°C and 5% CO2.
(§2) The HT-22 cells were seeded onto 96-well or 6-well plates. The next day, HT-22 cells were placed inside a sealed air-tight container consisting of an anaeropack (Mitsubishi Gas Company, Tokyo, Japan), which can induce a hypoxic atmosphere by absorbing oxygen and generating carbon dioxide. The cells were maintained in the hypoxic condition at 37°C for 18 h and re-oxygenated for 3 h at 37°C and 5% CO2. Subsequently, the cells were treated with reEPO or the peptides for 19 h before viability analysis.
We fixed the cells with 4% paraformaldehyde in PBS on a slide at 25°C, washed them with PBS, and then treated them with 3% H2O2 in methanol for 10 min. After washing with PBS, we treated the cells with 0.1% sodium citrate in 0.1% Triton X-100 on sample slides for 2 min on ice and washed again with PBS. Subsequently, we treated the cells with the TUNEL reaction mixture for 60 min at 37°C in the dark. After washing thrice with PBS, 50 μl of TUNEL peroxidase (POD) was added to the slides for 30 min at 37°C in the dark. […]

In data set [2] the test system is HT-22 cells. Nature of the data set: Cell viability after hypoxia and re-oxygenation. The settings on record: hypoxia 18 h, re-oxygenation 3 h, treatment 19 h; reEPO 0.5 IU/ml, ML1-h3 1 ng/ml; n = 12. The format is cell-based, mouse. The procedure: as §1
Cell viability was evaluated by 3-[(4,5-dimethylthiazol-2-yl)-5,3-carboxymethoxyphenyl]-2-(4-sulfophenyl)-2H tetrazolium, inner salt (MTS) reduction assay (CellTiter 96 Aqueous One Solution Cell Proliferation Assay, Promega, Madison, WI, USA). Briefly, differentiated neuronal-PC12 cells were treated with H2O2 (300 μM) with or without reEPO and peptides for 24 h. The PC12 cells were washed with PBS; 20 ul MTS solution was added to each well with 100 μl PBS, and the cells were incubated for 3 h at 37°C and 5% CO2. The intracellular soluble formazan produced by cellular reduction of the MTS was determined by recording the absorbance at 490 nm using a microplate reader (VersaMax, Molecular Devices, USA). Cell proliferation was also evaluated by the MTS assay. Undifferentiated PC12 cells were seeded into a 96-well plate (5x10^4 cells/well). The next day, the initial cell number was counted; after 48 h, under low FBS concentration (0.5%), with or without reEPO and peptides, cell number was measured by the MTS assay.
The HT-22 cells were seeded onto 96-well or 6-well plates. […]

Another data set has as its system Bax. Nature of the data set: Immunoblot of Bax after hypoxia and re-oxygenation. In kind it is cell-based, mouse. The conditions noted are these: HT-22 cells; reEPO 0.5 IU/ml, ML1-h3 1 ng/ml; normalized by β-Actin; n = 6. The procedure: (§3) PC12 or HT-22 cells were lysed in 100 mM Tris-Cl (pH 6.8) with 4% SDS. The lysates were loaded onto sodium dodecyl sulfate-polyacrylamide gel electrophoresis (SDS-PAGE) (8–10%), and the proteins were transferred onto the nitrocellulose membrane. The membrane was blocked with 0.1% TBST and 5% non-fat dry milk at 25°C for 30 min. Primary antibodies were diluted in 0.1% TBST and 3% bovine serum albumin (BSA). The primary antibodies included anti-pJAK2 (#3776, Cell Signaling Technology, USA), anti-JAK2 (#3230, Cell Signaling Technology, USA), anti-pSTAT5 (#9351, Cell Signaling Technology, USA), anti-STAT5 ([…], Cell Signaling Technology, USA), anti-pAKT (#9271, Cell Signaling Technology, USA), anti-AKT (#9272, Cell Signaling Technology, USA), anti-pERK (#9101, Cell Signaling Technology, USA) anti-ERK (#9102, Cell Signaling Technology, USA), anti-EPOR (#sc-365662, Santa Cruz Biotechnology, USA), anti-β-Actin (Santa Cruz Biotechnology, USA), anti-Bax (Santa Cruz Biotechnology, USA), anti-cleaved Casp3 (Cell Signaling Technology, USA), and anti-cleaved Parp1 (Cell Signaling Technology, USA).
(§4) The HT-22 cells were seeded onto 96-well or 6-well plates. The next day, HT-22 cells were placed inside a sealed air-tight container consisting of an anaeropack (Mitsubishi Gas Company, Tokyo, Japan), which can induce a hypoxic atmosphere by absorbing oxygen and generating carbon dioxide. […]
For orientation: In western blotting, separated proteins are transferred to a membrane and probed.

The next data set concerns cleaved Caspase 3. As to the kind of experiment: Immunoblot of cleaved Caspase 3 after hypoxia and re-oxygenation. The format is cell-based, mouse. The conditions noted are these: HT-22 cells; reEPO 0.5 IU/ml, ML1-h3 1 ng/ml; normalized by β-Actin; n = 6. The procedure:
as §3, §4

Data set [3] concerns HT-22 cells. Nature of the data set: ROS level by H2DCFDA after hypoxia and re-oxygenation. In kind it is cell-based, mouse. The conditions noted are these: reEPO 0.5 IU/ml, ML1-h3 1 ng/ml, n = 12. Here is the method: as §1
The cellular ROS level was measured using 2′,7′-dichlorodihydrofluorescein diacetate (H2DCFDA) (#D399, Invitrogen, USA). The cells were incubated with 5 μM H2DCFDA in PBS for 30 min, washed with PBS, and then resuspended in the medium for 2 h. After treatment of H2O2 without or with reEPO, or peptide, we monitored the oxidative stress by measuring the fluorescence intensities of H2DCFDA by using excitation and emission wavelengths of 485 nm and 535 nm, respectively.
as §2

The next data set deals with male mice (C57BL/6 N). As to the kind of experiment: Measurement of the hematopoietic effect after repeated subcutaneous injection. The format is in vivo. The settings on record: mouse, three times a week for four weeks, reEPO 150 IU/kg, ML1-h3 0.2 mg/kg. The procedure:
The protocol of this experiment was approved by the Animal Care and Use Committee of the DGIST (DGIST-IACUC-21090804-0000). After two weeks for quarantine and acclimatization, male mice (C57BL/6 N, Koatech, Korea) were subcutaneously injected with vehicle (n = 6), reEPO (n = 6, 150 IU/kg), or ML1-h3 (n = 6, 0.2 mg/kg) three times a week for four weeks. After three days of final injection, they were anesthetized by injection of zoletil (50 mg/kg), and their blood was gathered from posterior vena cava into an EDTA-coated tube (#367863, BD Vacutainer, USA) using a syringe. The blood samples were analyzed by an automatic hematology analyzer (#ADIVIA 2120i, SIEMENS Healthineers, Germany) in DGMIF (Korea).

For the substance “reEPO: Recombinant human EPO (Epoetin-α, CJ HealthCare Corporation)”, the “TUNEL-positive cells under H/R” value in the data set on HT-22 cells [1] is recorded as “dramatically decreased the TUNEL-positive cells”. The “Cell viability under H/R” value in the data set with HT-22 cells [2] is “suppressed the loss of cell viability”. For the same substance, the “Level of Bax under H/R” value with Bax is “efficiently reduced the levels of Bax”. Moreover, the “Level of cleaved Caspase 3 under H/R” value with cleaved Caspase 3 is reported as “efficiently reduced the levels of Bax, cleaved Caspase 3”. In addition, in the data set with HT-22 cells [3], the “ROS level induced by H/R” value was “decreased ROS level induced by H/R”. The Body weight entry with male mice (C57BL/6 N) (n = 6) is “No significant difference”. For the same substance, in the data set on male mice (C57BL/6 N) (n = 6, versus vehicle), the “Cell number of platelet” value is “did not significantly affect”, the Content of haemoglobin result is recorded as “dramatically increased”, the Hematocrit level result is “dramatically increased” and the Number of erythrocytes entry was “dramatically increased”. In the data set with male mice (C57BL/6 N) (n = 6, versus vehicle), the “Number of granulocytes, including neutrophils and eosinophils” value is “considerably decreased”; the Number of lymphocytes entry is given as “did not significantly affect”; the Number of monocytes result is listed as “did not significantly affect”; the Number of reticulocytes entry is listed as “dramatically increased”. Further, the “Total number of white blood cells” value with male mice (C57BL/6 N) (n = 6, versus vehicle) is “did not significantly affect”.
